doi:10.1101/2021.03.17.435802

Tests used:
ACE2(HH:NN)-Fc (human) = ACE2(HH:NN)-Fc (human) (UniProt Q9BYF1); experiment: SPR
[1] = molecular target: ACE2(HH:NN)-Fc LALA-PG (human) (UniProt Q9BYF1); experiment: SPR

Q: What does the source list for “SARS-CoV-2 S1 B.1.1.7 (from UniProt P0DTC2 14-680) (domain or fragment)”?
A: fold enhanced affinity (against S1 WT) (ACE2(HH:NN)-Fc (human)): 3 fold; fold enhanced affinity (against S1 WT) [1]: 3 fold
